# Where a chain is given by its changes, count along the chain named.
# T1: CD1a[H86 A] (human, UniProt P06126 18-295, limits assumed)
# T1 construct: also called point mutant CD1a[H86A]
# T1 chain: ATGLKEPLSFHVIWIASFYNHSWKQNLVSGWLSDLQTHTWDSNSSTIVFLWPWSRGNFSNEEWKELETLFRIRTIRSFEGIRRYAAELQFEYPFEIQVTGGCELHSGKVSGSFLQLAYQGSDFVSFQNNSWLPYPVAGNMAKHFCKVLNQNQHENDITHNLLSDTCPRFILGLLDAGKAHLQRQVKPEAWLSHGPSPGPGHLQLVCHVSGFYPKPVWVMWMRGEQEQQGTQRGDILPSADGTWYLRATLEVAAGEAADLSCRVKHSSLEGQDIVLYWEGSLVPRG
# B1: 110 (VR12112) (antibody, V domains shown)
# VH: QSVEESGGRLVTPGTPLTLTCTVSGFSLSSYAMIWVRQAPGKGLEWIGIINSSDNTHYATWAKGRFTISKTSTTVDLKITSPTTEDTATYFCARDPYDYGYGWYFDLWGPGTLVTVSS
# VL: AQVLTQTPSPVSAAVGGTVTINCQASQSVFNNKNLAWYQQKPGQPPKLLIYKASTLASGVSSRFKGSGSGTQFALTISGVQCDDAATYYCQGEFSCSSTDCVTFGGGTEVVVK
# notes: also called OX110; antibody 110
# B2: 116 (VR12117) (antibody, V domains shown)
# VH: QSVEESGGRLVTPGTPLTLTCTVSGFSLSNYAMSWVRQAPGKGLEWIGIIYTTGFTYYASWVKGRFTISKTSTTVDLKITSPTTEDTATYFCARGLATYVSPPTRLDLWGQGTLVTVSS
# VL: AQVLTQTPSPVSAAVGGTVTINCQASQSIYNSKNLAWYQQKPGQPPKLLIYSASTLASGVPSRFKGSGSGTQFTLTISDLECDDAATYYCQGEFSCSSVDCATFGGGTEVVVK
# notes: also called OX116
# B3: 77A (VR11851) (antibody, V domains shown)
# VH: QSVEESGGRLVTPGTPLTLTCTVSGFSLSSYAMSWVRQAPGKGLEWIGIISSSGTTYYASWAKGRFTISKTSTTVDLKITSPTTEDTATYFCARVDYYSSGWGGLWGPGTLVTVSS
# VL: AVEMTQTPASMSAAVGGTVTIKCQASEDIYSNLAWYQQKPGQPPKLLIYGASTLASGVPSRFKGSGSGTEYTLTISGVQCDDAATYYCQCTYDTSSYGNTFGGGTEMVVE
# notes: also called OX77a; antibody 77a
# B4: 111 (VR12113) (antibody, V domains shown)
# VH: QSVEESGGRLVTPGTPLTLTCTASGFSLSTYAMSWVRQAPGKGLEWIGIISSSGSTYYASWAKGRFTISKTSTTVDLKITSPTTEDTATYFCARETWYWLDLWGQGTLVTVSS
# VL: B3 VL with M11V, K22N, T91A, T94S, N99T, T100P, M107V, E110K
# notes: also called OX111
# Biological target: T1, CD1a[H86 A]
# Test: epitope mapping experiments (not described)
row,Binder,binding result
1,B1,no binding

# Biological target: T2, human CD1b expressed on HEK-293 cells (human, UniProt P29016 18-333; P61769 21-119)
# T2 construct: also called HEK - CD1b
# Test: flow cytometry, HEK-293 cells, 100 µg/ml antibody
row,Binder,Fluorescence Intensity Geomean (normalized to background)
1,B2,1.1 fold over background
2,B1,1.1 fold over background
3,B3,1 fold over background
4,B4,1.1 fold over background

# Biological target: T3, human CD1c expressed on HEK-293 cells (human, UniProt P29017 18-333; P61769 21-119)
# T3 construct: also called HEK - CD1c
# Test: flow cytometry, HEK-293 cells, 100 µg/ml antibody
row,Binder,Fluorescence Intensity Geomean (normalized to background)
1,B2,1 fold over background
2,B1,1 fold over background
3,B3,0.9 fold over background
4,B4,1.1 fold over background

# Biological target: T4, human CD1d expressed on HEK-293 cells (human, UniProt P15813 20-335; P61769 21-119)
# T4 construct: also called HEK - CD1d
# Test: flow cytometry, HEK-293 cells, 100 µg/ml antibody
row,Binder,Fluorescence Intensity Geomean (normalized to background)
1,B2,1 fold over background
2,B1,1.1 fold over background
3,B3,1 fold over background
4,B4,1.1 fold over background

# Biological target: T5, human CD1a expressed on cells (human, UniProt P06126 17-327; P61769 21-119)
# T5 construct: also called HEK - CD1a; C1R - CD1a
# Test: flow cytometry, HEK-293 cells, 100 µg/ml antibody
row,Binder,Fluorescence Intensity Geomean (normalized to background)
1,B2,3.9 fold over background
2,B1,5.9 fold over background
3,B3,4.1 fold over background
4,B4,4.3 fold over background

# Source: patent publication US20250289893A1 (OXFORD UNIVERSITY INNOVATION, published 2025)
